Experiment [1] has as its target Tau217-234 phospho-peptide (pT217/pT220/pT231) (human). Briefly: BLI.
For experiment [2], the target named is Tau225-240 phospho-peptide (pT231) (human). Briefly: BLI.
In experiment [3] the target is Peptide 5 (tPeptide 5) (pT212/pS214/pT217) (human). Briefly: one point ELISA.
Experiment [4] deals with Tau204-222 phospho-peptide (pS214) (human). Briefly: one point ELISA.
The target in experiment [5] is Tau204-222 phospho-peptide (pS214/pT217) (human). Nature of the experiment: one point ELISA.
The target in experiment [6] is Tau204-222 phospho-peptide (pT212) (human). Nature of the experiment: one point ELISA.
Experiment [7] addresses Tau204-222 phospho-peptide (pT212/pS214) (human). Briefly: one point ELISA.
For experiment [8], the target named is Tau204-222 phospho-peptide (pT212/pS214/pT217) (human). Briefly: one point ELISA.
In experiment [9] the target is Tau204-222 phospho-peptide (pT212/pT217) (human). Nature of the experiment: one point ELISA.
The target of experiment [10] is Tau204-222 phospho-peptide (pT217) (human). Nature of the experiment: one point ELISA.
For the next experiment, the target named is wtTau C2 (human). Briefly: one point ELISA.
Experiment [11] concerns the target SCBio-4PEG-Peptide (Tau191-214) pS199-old (human). Briefly: one point ELISA.
In experiment [12] the target is Tau191-214 phospho-peptide (pS199) (human). Nature of the experiment: one point ELISA.
The target in experiment [13] is Tau191-214 phospho-peptide (pS199/pS202) (human). Briefly: one point ELISA.
In experiment [14] the target is Tau191-214 phospho-peptide (pS199/pS202/pT205) (human). Nature of the experiment: one point ELISA.
The target in experiment [15] is Tau191-214 phospho-peptide (pS199/pT205) (human). Briefly: one point ELISA.
Experiment [16] concerns the target Tau191-214 phospho-peptide (pS202) (human). Briefly: one point ELISA.
Experiment [17] addresses Tau191-214 phospho-peptide (pS202/pT205) (human). Briefly: one point ELISA.
Experiment [18] concerns the target Tau191-214 phospho-peptide (pT205) (human). Briefly: one point ELISA.
For experiment [19], the target named is AT8 peptide (amino acids 195-215 of tau) (human). Briefly: BLI (Octet), peptide on streptavidin tip.

The values that follow come from patent US20240059766A1.

Sequence of Tau191-214 phospho-peptide (pS202) (human) (peptide, as listed by the source): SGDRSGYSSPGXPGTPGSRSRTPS
Sequence of Tau191-214 phospho-peptide (pS199) (human) (peptide, as listed by the source): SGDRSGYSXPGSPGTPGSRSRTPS
Sequence of SCBio-4PEG-Peptide (Tau191-214) pS199-old (human) (peptide, as listed by the source): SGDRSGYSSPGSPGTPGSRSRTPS
Sequence of Tau191-214 phospho-peptide (pT205) (human) (peptide, as listed by the source): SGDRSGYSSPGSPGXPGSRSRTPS
Sequence of AT8 peptide (amino acids 195-215 of tau) (human) (peptide, as listed by the source): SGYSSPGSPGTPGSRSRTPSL

Turning to AT180 (antibody), the Kd in [1] was found to be 5 pM; in experiment [2] it was 6 pM.

Consider PT3-hIgG1 (antibody), for which the OD450 in experiment [3] was found to be 2.81 OD450 nm; in experiment [4] it was 3.14 OD450 nm; in experiment [5], 3.13 OD450 nm; in experiment [6] it was 3.16 OD450 nm; in experiment [7], 3.14 OD450 nm; in experiment [8], 3.17 OD450 nm. The OD450 in experiment [9] was 3.16 OD450 nm; in experiment [10] it was 3.13 OD450 nm; in the experiment with wtTau C2 (human), 1.2 OD450 nm.

On to “anti-tau antibody AT8 (ThermoFisher, Waltham, MA)”, for which the OD450 in [11] stood at 0.056 OD450 nm; in [12], 0.056 OD450 nm; in experiment [13], 2.39 OD450 nm; in experiment [14], 3.07 OD450 nm; in experiment [15] it was 0.139 OD450 nm; in [16], 0.058 OD450 nm. Further, the OD450 stood at 2.94 OD450 nm in experiment [17] and 0.065 OD450 nm in experiment [18]. In experiment [19], this substance showed a Kd of 309 pM.

As to “anti-tau antibody AT100 (ThermoFisher, Waltham, MA)”, the OD450 in experiment [4] turned out to be 0.065 OD450 nm; in [5] it was 0.067 OD450 nm; in experiment [6], 0.069 OD450 nm; in experiment [7], 0.071 OD450 nm; in experiment [8] it was 0.187 OD450 nm; in experiment [9], 0.069 OD450 nm. Also, the OD450 in [10] amounted to 0.068 OD450 nm.

hIgG1 isotype control (antibody): the OD450 in experiment [3] is 0.141 OD450 nm; in experiment [11], 0.06 OD450 nm; in [12], 0.058 OD450 nm; in [13], 0.062 OD450 nm; in experiment [14] it was 0.245 OD450 nm; in experiment [15] it was 0.09 OD450 nm. Further, the OD450 in [16] is 0.055 OD450 nm; in experiment [17], 0.249 OD450 nm; in experiment [18], 0.054 OD450 nm; in [4] it was 0.061 OD450 nm; in experiment [5] it was 0.059 OD450 nm; in experiment [6] it was 0.06 OD450 nm. Further, the OD450 in experiment [7] stood at 0.059 OD450 nm; in experiment [8] it was 0.053 OD450 nm; in experiment [9], 0.057 OD450 nm; in experiment [10] it was 0.083 OD450 nm; with wtTau C2 (human) it was 0.124 OD450 nm.
